Test results as given in patent US20090263894A1 (AbbVie / Abbott, published 2009).
Numbering of substitutions follows the chain as printed. Blank lines part the entries; values can stand above or below the binder they belong to.

Assays:
[1] = target: T1, NGAL rAg S14A displayed on yeast (human, UniProt P80188 21-198); assay: flow cytometry, mAb titrated on yeast displaying NGAL
T1 construct: Yeast display AGA2 fusion as m5
T1 chain: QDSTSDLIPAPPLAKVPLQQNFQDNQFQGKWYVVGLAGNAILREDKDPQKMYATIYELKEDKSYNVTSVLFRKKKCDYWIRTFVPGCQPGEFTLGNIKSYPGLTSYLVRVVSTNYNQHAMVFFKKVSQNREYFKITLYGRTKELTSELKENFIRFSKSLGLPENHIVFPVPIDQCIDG
Protocol: (§1) The side chain of each of the NGAL rAg residues identified from the epitope selections was altered by site-directed mutagenesis to alanine to confirm the functional epitope (direct contact residues) of each NGAL mAb subclone.
(§2) The change in Gibbs free binding energy (ΔΔG_Ala-WT) was determined to assess the energetic impact of each alanine substitution for mAb binding. The change in Gibbs free binding energy upon alanine substitution was calculated using the following equation [2],
(§3) For these experiments, observed fluorescence (F) was used to solve for KD using equation [1]. The KD derived from equation [1] one was then used in equation [2] to derive the change in Gibbs free binding energy upon alanine substitution. The KD is read from the abscissa of each of the curves at the inflection point.

[2] = target: T2, NGAL rAg S158A displayed on yeast (human, UniProt P80188 21-198); assay: as above
T2 construct: Yeast display AGA2 fusion as m5
T2 chain: T1 chain with A14S, S158A
Protocol: as §1, §2, §3

[3] = target: T3, NGAL rAg L159A displayed on yeast (human, UniProt P80188 21-198); assay: as above
T3 construct: Yeast display AGA2 fusion as m5
T3 chain: T1 chain with A14S, L159A
Protocol: as §1, §2, §3

[4] = target: T4, NGAL rAg G160A displayed on yeast (human, UniProt P80188 21-198); assay: as above
T4 construct: Yeast display AGA2 fusion as m5
T4 chain: T1 chain with A14S, G160A
Protocol: as §1, §2, §3

[5] = target: T1, NGAL rAg S14A displayed on yeast; assay: flow cytometry titration of the mAb on yeast displaying the NGAL antigen, detection with GaM-PE, fractional binding
[6] = target: T5, NGAL rAg E147A displayed on yeast (human, UniProt P80188 21-198); assay: flow cytometry, mAb titrated on yeast displaying NGAL
T5 construct: Yeast display AGA2 fusion as m5
T5 chain: T1 chain with A14S, E147A
Protocol: as §1, §2, §3

[7] = target: T6, NGAL rAg S112A displayed on yeast (human, UniProt P80188 21-198); assay: as above
T6 construct: Yeast display AGA2 fusion as m5
T6 chain: T1 chain with A14S, S112A
Protocol: as §1, §2, §3

[8] = target: T7, NGAL rAg Q117A displayed on yeast (human, UniProt P80188 21-198); assay: as above
T7 construct: Yeast display AGA2 fusion as m5
T7 chain: T1 chain with A14S, Q117A
Protocol: as §1, §2, §3

[9] = target: T8, NGAL rAg H118A displayed on yeast (human, UniProt P80188 21-198); assay: as above
T8 construct: Yeast display AGA2 fusion as m5
T8 chain: T1 chain with A14S, H118A
Protocol: as §1, §2, §3

[10] = target: T9, NGAL rAg A119G displayed on yeast (human, UniProt P80188 21-198); assay: as above
T9 construct: Yeast display AGA2 fusion as m5
T9 chain: T1 chain with A14S, A119G
Protocol: as §1, §2, §3

Kd [1]: 0.281 nM | ΔKD (KD against KD of WT) [1]: 1.38 fold | ΔΔG Ala-WT [1]: 0.19 kcal/mol | Kd [2]: 0.242 nM | ΔKD (KD against KD of WT) [2]: 1.19 fold | ΔΔG Ala-WT [2]: 0.1 kcal/mol | Kd [3]: 0.137 nM | ΔKD (KD against KD of WT) [3]: 0.67 fold | ΔΔG Ala-WT [3]: -0.23 kcal/mol | Kd [4]: 0.164 nM | ΔKD (KD against KD of WT) [4]: 0.8 fold | ΔΔG Ala-WT [4]: -0.13 kcal/mol | EC50 (read off the curve) [5]: ~0.3 nM
B1: anti-NGAL monoclonal antibody 1-903-430 (antibody, V domains shown)
VH: KIQLVQSGPELKKPGETVKISCKASGYTFTNYGMNWVKQAPGKGLKWMGWININTGEPTYAEEFKGRFAFSLETSATTAFLQINNLKNEDTATYLCARDSYSGGFDYWGQGTIVTVSS
VL: DIVMTQSPSSLSVSAGEKVTLSCKSSQSLLISGDQKNYLAWYQQKPGQPPKLLIYGASTRDSGVPDRFTGSGSGADFTLTISSVQAEDLAVYYCQNDHSFPPTFGAGTKLELKR

Kd [6]: 492 nM | ΔKD (KD against KD of WT) [6]: 61000 fold | ΔΔG Ala-WT [6]: 6.5 kcal/mol | Kd [7]: 0.0793 nM | ΔKD (KD against KD of WT) [7]: 9.79 fold | ΔΔG Ala-WT [7]: 1.35 kcal/mol | Kd [8]: 0.0307 nM | ΔKD (KD against KD of WT) [8]: 3.79 fold | ΔΔG Ala-WT [8]: 0.79 kcal/mol | Kd [9]: 0.114 nM | ΔKD (KD against KD of WT) [9]: 14.1 fold | ΔΔG Ala-WT [9]: 1.56 kcal/mol | Kd [10]: 0.00783 nM | ΔKD (KD against KD of WT) [10]: 0.97 fold | ΔΔG Ala-WT [10]: -0.02 kcal/mol
B2: anti-NGAL monoclonal antibody 1-2322-455 (antibody, V domains shown)
VH: EVQLVESGGGLVQPGGSLKLSCAASGFTFNNYYMSWVRQTPERRLEWVAYISSSGGSTYYSDSVRGRFTISRDTARNTLYLQMTSLKSEDTAMYYCARHFGDYSYFDYWGQGTTLTVSS
VL: DIQMTQSPASLSASVGETVTITCRASENFYSYLAWYQQKQGKSPQLLVYNAKTLAEGVPSRFSGSGSGTQFSLKINSLQPEDFGTYYCQHHYDIPLTFGAGTKLELKR
